Source: US20200062847A1 (XIANGTAN TENGHUA BIOSCIENCE, published 2020)
Changes are numbered by the printed parent chain. Each block holds one binder with its values, some of them ahead of it.

How the values were obtained:
mouse PD-1 = target: T1, mouse PD-1 (mouse, UniProt Q02242 25-167, limits assumed); assay: ELISA
T1 sequence (looked up): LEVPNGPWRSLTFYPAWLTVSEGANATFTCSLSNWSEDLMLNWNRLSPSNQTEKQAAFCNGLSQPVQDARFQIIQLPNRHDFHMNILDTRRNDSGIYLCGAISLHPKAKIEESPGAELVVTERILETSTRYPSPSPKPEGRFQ

recombinant human PD-1 [1] = target: T2, recombinant human PD-1 (human, UniProt Q15116 25-167, limits assumed); assay: competition ELISA on coated human PD-1, antibody titrated against 50 ng/ml Nivolumab as competitor; EC50 estimated at half-maximal absorbance
T2 construct: also called human PD-1 protein; soluble PD-1
T2 sequence (Q15116 25-167 limits assumed): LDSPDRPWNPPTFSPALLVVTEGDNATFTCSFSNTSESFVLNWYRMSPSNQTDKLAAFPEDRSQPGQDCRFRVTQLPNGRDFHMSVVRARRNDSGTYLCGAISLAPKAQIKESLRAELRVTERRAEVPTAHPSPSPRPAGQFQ
Experimental: The assay was conducted essentially as follows. […] HRP-conjugated anti-human antibody was added and incubated.

recombinant human PD-1 [2] = target: T2, recombinant human PD-1; assay: SPR (Biacore), antibody captured via anti-human IgG
Experimental: This technology allows the label-free determination of the microscopic rate constants for binding (kₐ) and dissociation (kd) of a ligand to a receptor. […] The kinetic traces were evaluated with the Biacore™ T2000. The full set of these traces with increasing concentrations is taken together and is called a run. Two zero concentration samples (blank runs) were included in each analyte concentration series to allow double-referencing during data evaluation. The kinetic rate constants for association (kₐ) and dissociation (kd) as well as the dissociation equilibrium constant (KD) were calculated.

B1: Abs-r-924 (antibody, V domains shown)
VH: QESVKESGGGLVKPGDTLTLTCKVSGFSISSYGMHWVRQAPGKGLEWIGVISYDGSNKYYADSVKGRFTISRNTNQNTVTLKMTSLTADDTATYFCARYYYYYGMDVWGQGTLVTVSS
VL: EIVLTQTPSSVSAAVGSTVTINCRGSQSLSSYLAWYQQKPGQRPKLLIYDVSNRATGVPRRFKGSGSGTQFTLTISGVQADDAATYYCQQRTNWPRAFGGGTKVDVKG
notes: Rabbit recombinant antibody expressed in HEK293; also called rabbit anti-human-PD-1 recombinant antibody Abs-r-924
binding result (mouse PD-1): no binding

B2: Abs-h-923 (antibody, V domains shown)
VH: QVQLVQSGAEVKKPGASVKVSCKASGYTFTSYAMHWVRQAPGQRLEWMGWSNAGNGNTKYSQEFQGRVTITRDTSASTAYMELSSLRSEDMAVYYCARYWYFDLWGRGTLVTVSS
VL: EIALTQSPATLSLSPGERATLSCRASQSGSSFVAWYQQKPGQAPRLLIYANNKRETGIPARFSGSGSGTDFTLTISSLEPEDFAVYYCGTYTDSPPTFGQGTKVEIKR
EC50 (recombinant human PD-1 [1]): 410 pM
koff (recombinant human PD-1 [2]): 7.9e-06 s⁻¹
kon (recombinant human PD-1 [2]): 1.15e+06 M⁻¹ s⁻¹

Further binders by falling EC50 (recombinant human PD-1 [1]), results first:

EC50 (recombinant human PD-1 [1]): 150 pM
koff (recombinant human PD-1 [2]): 3.2e-06 s⁻¹
kon (recombinant human PD-1 [2]): 1.19e+06 M⁻¹ s⁻¹
B4: Abs-h-925 (antibody, V domains shown)
VH: QVQLVDSGGGVVQPGRSLRLSCAASAFTFSSYAMHWVRQAPGKGLEWVAVISYDGSNKYYADSVKGRFTISRDNSKNTLYLQMNSLRAEDTAVYYCARYYYYYYMDVWGKGTTVTVSS
VL: EIVLTQSPATLSLSPGERATLSCRASQSVSSYLAWYQQKPGQAPRLLIYEASNRATGIPARFSGSGSGTDFTLTISSLEPEDFAVYYCQQRTNWPPAFGQGTKVEIKR
notes: also called humanized anti-human-PD-1 recombinant antibody Abs-h-925

EC50 (recombinant human PD-1 [1]): 140 pM
koff (recombinant human PD-1 [2]): 3.9e-06 s⁻¹
kon (recombinant human PD-1 [2]): 1.22e+06 M⁻¹ s⁻¹
B3: Abs-h-924 (antibody, V domains shown)
VH: B4 VH with D6E, A26G, A33G, Y104G, K110Q
VL: B4 VL with L21I, A25G, V29L, K39R, E50D, A51V, S77G, P96R
notes: also called humanized anti-human-PD-1 recombinant antibody Abs-h-924
